The values that follow come from PMC10397247.

Where two headings read alike, the source gives them in different places.

The target in one experiment is T1, P6-AA-12HGe-S.
T1 chain: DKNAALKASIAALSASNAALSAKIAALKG
Put plainly: two-hybrid library CCmax.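 Note: natural log of median RNA to DNA barcode read ratio; higher means stronger binding.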 The settings on record: mean of both orientations.

A further experiment concerns the target T2, P6-AA-12HGe-Q.
T2 chain: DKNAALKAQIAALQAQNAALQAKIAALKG
Put plainly: two-hybrid library CCmax.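 Note: natural log of median RNA to DNA barcode read ratio; higher means stronger binding.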 The settings on record: mean of both orientations.

The next experiment has as its target T3, P6-AA-12HGe-M.
T3 chain: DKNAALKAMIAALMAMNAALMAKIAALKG
Put plainly: two-hybrid library CCmax.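 Note: natural log of median RNA to DNA barcode read ratio; higher means stronger binding.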 The settings on record: mean of both orientations.

A further experiment concerns the target T4, P6-AA-12HGe-R.
T4 chain: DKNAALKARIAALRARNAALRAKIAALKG
Put plainly: two-hybrid library CCmax.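 Note: natural log of median RNA to DNA barcode read ratio; higher means stronger binding.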 The settings on record: mean of both orientations.

The next experiment concerns the target T5, P6-AA-12HGe-T.
T5 chain: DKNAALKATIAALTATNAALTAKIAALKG
Nature of the experiment: two-hybrid library CCmax.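 Note: natural log of median RNA to DNA barcode read ratio; higher means stronger binding.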 The settings on record: mean of both orientations.

Another experiment has as its target T6, P6-AA-12HGe-W.
T6 chain: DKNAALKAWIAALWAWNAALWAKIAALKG
Put plainly: two-hybrid library CCmax.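 Note: natural log of median RNA to DNA barcode read ratio; higher means stronger binding.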 The note with it: mean of both orientations.

The next experiment deals with T7, P6-AA-12HGe-K.
T7 chain: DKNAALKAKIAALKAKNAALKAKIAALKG
Nature of the experiment: two-hybrid library CCmax. The note with it: mean of both orientations.

In another experiment the target is T8, P6-AA-12HGe-A.
T8 chain: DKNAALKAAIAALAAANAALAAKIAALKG
Put plainly: two-hybrid library CCmax. The settings on record: mean of both orientations.

The next experiment has as its target T9, P6-AA-12HGe-H.
T9 chain: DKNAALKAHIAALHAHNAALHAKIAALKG
Nature of the experiment: two-hybrid library CCmax. The note with it: mean of both orientations.

In the next experiment the target is T10, P6-AA-12HGe-D.
T10 chain: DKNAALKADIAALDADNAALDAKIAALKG
Nature of the experiment: two-hybrid library CCmax.

In a further experiment the target is T11, O8-bP.
T11 chain: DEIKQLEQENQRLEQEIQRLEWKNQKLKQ
Nature of the experiment: two-hybrid library CCNG1.

For a further experiment, the target named is T12, 4H3462-bN.
T12 chain: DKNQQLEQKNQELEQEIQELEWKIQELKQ
Put plainly: two-hybrid library CCNG1.

The target of a further experiment is T13, 4H3628-bN.
T13 chain: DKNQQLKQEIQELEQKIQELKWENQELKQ
Put plainly: two-hybrid library CCNG1.

The target of a further experiment is T14, 4H626-bN.
T14 chain: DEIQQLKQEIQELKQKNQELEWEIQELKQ
Put plainly: two-hybrid library CCNG1.

The next experiment has as its target T15, 4H591-bN.
T15 chain: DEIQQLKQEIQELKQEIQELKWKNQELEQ
Put plainly: two-hybrid library CCNG1.

The next experiment concerns the target T16, 4H906-bN.
T16 chain: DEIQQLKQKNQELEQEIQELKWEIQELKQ
Put plainly: two-hybrid library CCNG1.

Another experiment concerns the target T17, 4H3926-bN.
T17 chain: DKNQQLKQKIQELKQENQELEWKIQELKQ
Put plainly: two-hybrid library CCNG1.

The target in the next experiment is T18, 4H3613-bN.
T18 chain: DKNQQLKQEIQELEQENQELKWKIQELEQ
Put plainly: two-hybrid library CCNG1.

A further experiment deals with T19, 4H3497-bN.
T19 chain: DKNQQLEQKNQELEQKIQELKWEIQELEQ
Put plainly: two-hybrid library CCNG1.

A further experiment has as its target T20, 4H855-bN.
T20 chain: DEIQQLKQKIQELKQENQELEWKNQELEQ
Put plainly: two-hybrid library CCNG1.

A further experiment has as its target T21, 4H754-bN.
T21 chain: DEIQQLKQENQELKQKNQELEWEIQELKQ
Nature of the experiment: two-hybrid library CCNG1.

For a further experiment, the target named is T22, 4H968-bN.
T22 chain: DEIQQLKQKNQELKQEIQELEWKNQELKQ
Put plainly: two-hybrid library CCNG1.

The target of another experiment is T23, 4H683-bN.
T23 chain: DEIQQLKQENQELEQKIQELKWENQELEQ
Put plainly: two-hybrid library CCNG1.

In another experiment the target is T24, 4H797-bN.
T24 chain: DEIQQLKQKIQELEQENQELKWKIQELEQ
Nature of the experiment: two-hybrid library CCNG1.

The next experiment deals with T25, 4H4073-bN.
T25 chain: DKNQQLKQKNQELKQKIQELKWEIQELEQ
Nature of the experiment: two-hybrid library CCNG1.

In the next experiment the target is T26, 4H575-bN.
T26 chain: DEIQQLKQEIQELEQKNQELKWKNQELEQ
Put plainly: two-hybrid library CCNG1.

In another experiment the target is T27, 4H457-bN.
T27 chain: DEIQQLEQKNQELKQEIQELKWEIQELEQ
Nature of the experiment: two-hybrid library CCNG1.

The target in another experiment is T28, 4H780-bN.
T28 chain: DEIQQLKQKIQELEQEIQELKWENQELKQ
Nature of the experiment: two-hybrid library CCNG1.

In a further experiment the target is T29, 4H3427-bN.
T29 chain: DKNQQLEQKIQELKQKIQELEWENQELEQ
Nature of the experiment: two-hybrid library CCNG1.

The target in another experiment is T30, 4H3010-bN.
T30 chain: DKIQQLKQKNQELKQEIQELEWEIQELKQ
Nature of the experiment: two-hybrid library CCNG1.

Another experiment deals with T31, 4H953-bN.
T31 chain: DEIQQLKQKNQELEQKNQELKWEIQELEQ
Nature of the experiment: two-hybrid library CCNG1.

Another experiment concerns the target T32, 4H918-bN.
T32 chain: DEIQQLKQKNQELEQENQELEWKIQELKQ
Nature of the experiment: two-hybrid library CCNG1.

The next experiment concerns the target T33, 4H3112-bN.
T33 chain: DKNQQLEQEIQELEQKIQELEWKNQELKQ
Nature of the experiment: two-hybrid library CCNG1.

A further experiment has as its target T34, 4H346-bN.
T34 chain: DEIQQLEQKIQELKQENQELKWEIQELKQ
Nature of the experiment: two-hybrid library CCNG1.

In the case of DENAALEAQIAALQAQNAALQAEIAALEG [P5-AA-12HGe-Q], the interaction score with P6-AA-12HGe-S was 0.0975; with P6-AA-12HGe-Q, 1.76; with P6-AA-12HGe-M, 1.12; with P6-AA-12HGe-R, 1.09; with P6-AA-12HGe-T, 1.2; with P6-AA-12HGe-W it was -1.08. Moreover, the interaction score in the experiment with P6-AA-12HGe-K is 1.68; in the experiment with P6-AA-12HGe-A, 1.19; with P6-AA-12HGe-H, -0.211; with P6-AA-12HGe-D (mean of both orientations), -1.9.

For DENAALEAMIAALMAMNAALMAEIAALEG [P5-AA-12HGe-M], the interaction score is -0.47 with P6-AA-12HGe-S; 2.16 with P6-AA-12HGe-Q; 0.995 in the experiment with P6-AA-12HGe-M; 0.594 with P6-AA-12HGe-R; 1.54 in the experiment with P6-AA-12HGe-T; -0.0463 in the experiment with P6-AA-12HGe-W. Moreover, the interaction score was 1.12 in the experiment with P6-AA-12HGe-K, 1.15 with P6-AA-12HGe-A, -0.103 with P6-AA-12HGe-H and -1.48 with P6-AA-12HGe-D.

Consider DENAALEAWIAALWAWNAALWAEIAALEG [P5-AA-12HGe-W], for which the interaction score with P6-AA-12HGe-S is -0.198; in the experiment with P6-AA-12HGe-Q, 0.162; with P6-AA-12HGe-M, 0.011; in the experiment with P6-AA-12HGe-R, -1.34; with P6-AA-12HGe-T, -0.564; in the experiment with P6-AA-12HGe-W it was -1.05. Moreover, the interaction score with P6-AA-12HGe-K was -2.03; in the experiment with P6-AA-12HGe-A, -0.131; with P6-AA-12HGe-H it was -1.46; with P6-AA-12HGe-D (mean of both orientations) it was -1.67.

As for DENAALEARIAALRARNAALRAEIAALEG [P5-AA-12HGe-R], the interaction score with P6-AA-12HGe-S is -0.593; with P6-AA-12HGe-Q it was 1.15; with P6-AA-12HGe-M, -0.376; with P6-AA-12HGe-R, -1.36; with P6-AA-12HGe-T it was -0.204; in the experiment with P6-AA-12HGe-W it was -1.7. Moreover, the interaction score with P6-AA-12HGe-K was -0.748; with P6-AA-12HGe-A it was 0.13; in the experiment with P6-AA-12HGe-H it was -1.35; with P6-AA-12HGe-D (mean of both orientations), -0.685.

DENAALEATIAALTATNAALTAEIAALEG [P5-AA-12HGe-T]: the interaction score is -1.32 with P6-AA-12HGe-S; 1.22 with P6-AA-12HGe-Q; -0.283 with P6-AA-12HGe-M; 0.245 with P6-AA-12HGe-R; -0.438 with P6-AA-12HGe-T; -1.07 with P6-AA-12HGe-W. Further, the interaction score with P6-AA-12HGe-K was 0.446; with P6-AA-12HGe-A it was -0.0467; with P6-AA-12HGe-H it was -1.26; with P6-AA-12HGe-D (mean of both orientations) it was -1.71.

DENAALEASIAALSASNAALSAEIAALEG [P5-AA-12HGe-S]: the interaction score with P6-AA-12HGe-S is -2.05; in the experiment with P6-AA-12HGe-Q it was -0.404; with P6-AA-12HGe-M, -1.66; with P6-AA-12HGe-R it was -0.734; in the experiment with P6-AA-12HGe-T it was -1.05; with P6-AA-12HGe-W it was -1.53. The interaction score with P6-AA-12HGe-K is -0.261; with P6-AA-12HGe-A, -1.21; in the experiment with P6-AA-12HGe-H it was -1.52; with P6-AA-12HGe-D (mean of both orientations) it was -1.45.

In the case of DENAALEAHIAALHAHNAALHAEIAALEG [P5-AA-12HGe-H], the interaction score with P6-AA-12HGe-S was -2; with P6-AA-12HGe-Q, -0.057; with P6-AA-12HGe-M, -1.41; with P6-AA-12HGe-R, -1.38; with P6-AA-12HGe-T, -1.15; with P6-AA-12HGe-W, -2.54. The interaction score in the experiment with P6-AA-12HGe-K was -1.26; in the experiment with P6-AA-12HGe-A it was -1.29; with P6-AA-12HGe-H, -1.62; with P6-AA-12HGe-D (mean of both orientations), -1.79.

On to DENAALEAAIAALAAANAALAAEIAALEG [P5-AA-12HGe-A], for which the interaction score is -1.02 with P6-AA-12HGe-S; 1.38 with P6-AA-12HGe-Q; 0.58 in the experiment with P6-AA-12HGe-M; 0.304 in the experiment with P6-AA-12HGe-R; -0.125 in the experiment with P6-AA-12HGe-T; -0.644 in the experiment with P6-AA-12HGe-W. Besides, the interaction score with P6-AA-12HGe-K was 0.623; in the experiment with P6-AA-12HGe-A it was -0.0358; with P6-AA-12HGe-H, -0.816; with P6-AA-12HGe-D (mean of both orientations) it was -1.87.

In the case of DKNQQLEQKNQELEQEIQELEWKIQELKQ [4H3462-bN], the interaction score was -2.6 with O8-bP; 0.127 with 4H3462-bN; 0.522 with 4H3628-bN; 0.696 with 4H626-bN; -0.826 in the experiment with 4H591-bN; -0.328 in the experiment with 4H906-bN. Also, the figures for the interaction score with 4H3926-bN, with 4H3613-bN and with 4H3497-bN were -0.216, -0.0373 and 0.781, respectively.

With DENAALEAYIAALYAYNAALYAEIAALEG [P5-AA-12HGe-Y], the interaction score is -1.51 with P6-AA-12HGe-S; 0.323 with P6-AA-12HGe-Q; 0.0241 with P6-AA-12HGe-M; -0.752 in the experiment with P6-AA-12HGe-R; -0.218 in the experiment with P6-AA-12HGe-T; -0.852 in the experiment with P6-AA-12HGe-W. The interaction score was -0.203 in the experiment with P6-AA-12HGe-K, -0.307 with P6-AA-12HGe-A, -0.445 with P6-AA-12HGe-H and -1.93 in the experiment with P6-AA-12HGe-D (mean of both orientations).

For DENAALEAEIAALEAENAALEAEIAALEG [P5-AA-12HGe-E], the interaction score in the experiment with P6-AA-12HGe-S was -0.0947; with P6-AA-12HGe-Q, 2.02; in the experiment with P6-AA-12HGe-M, 0.542; with P6-AA-12HGe-R it was 1.58; in the experiment with P6-AA-12HGe-T, 0.892; in the experiment with P6-AA-12HGe-W it was -0.981. For the same molecule, the interaction score is 1.8 with P6-AA-12HGe-K, 1.23 with P6-AA-12HGe-A, 2.11 with P6-AA-12HGe-H and -1.51 in the experiment with P6-AA-12HGe-D (mean of both orientations).

Take DKIQQLKQKNQELKQEIQELEWEIQELKQ [4H3010-bN]: the interaction score with 4H855-bN is -0.686; with 4H754-bN it was -1.56; in the experiment with 4H968-bN, -1.13; in the experiment with 4H683-bN it was 1.02; with 4H797-bN, -0.873; in the experiment with 4H4073-bN it was -1.32. The interaction score with 4H575-bN was -1.47; with 4H457-bN it was -0.409; with 4H780-bN, -0.214; with 4H3427-bN it was -0.668; in the experiment with 4H3926-bN, -0.546; with 4H3010-bN it was -0.256. Also, the interaction score with 4H953-bN was -1.77; in the experiment with 4H918-bN it was -0.536; with 4H3112-bN it was -1.33; in the experiment with 4H346-bN it was -1.97.
